# B1: SERPINB5 (parent)
# chain: FPESETKECPFRVNKVCGAACSSK
# Variants of: B1
# Experiment: protein stability index of a GFP-peptide fusion (GPS, HEK-293T) (PSI 1-6); higher = more stable
# Details: c terminus: a fixed tail appended
# 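Further: lentivirally expressed fusions sorted by FACS into six bins by GFP to DsRed ratio, PSI derived from sequencing read proportions per bin multiplied by bin number.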
row,Variant,protein stability index
1,FPESETKECPFRVNRVCGAACSSK,2.76
2,FPESETKECPFRVNMVCGAACSSK,2.38
3,FPESETKECPFRVNAVCGAACSSK,3.17
4,FPESETKECPFRVNHVCGAACSSK,4.17
5,FPESETKECPFRVNDVCGAACSSK,3.01
6,FPESETKECPFRVNVVCGAACSSK,2.1
7,FPESETKECPFRVNGVCGAACSSK,2.22
8,FPESETKECPFRVNTVCGAACSSK,2.48
9,FPESETPECPFRVNKVCGAACSSK,2.76
10,FPESETCECPFRVNKVCGAACSSK,3.21
11,FPESETFECPFRVNKVCGAACSSK,1.89
12,FPESETSECPFRVNKVCGAACSSK,2.69
13,FPESETGECPFRVNKVCGAACSSK,2.52
14,FPESETAECPFRVNKVCGAACSSK,2.43
15,FPESETYECPFRVNKVCGAACSSK,1.97
16,FPESETNECPFRVNKVCGAACSSK,3.05
17,FPESETEECPFRVNKVCGAACSSK,2.78
18,FPESETQECPFRVNKVCGAACSSK,2.86
19,MPESETKECPFRVNKVCGAACSSK,4.85
20,VPESETKECPFRVNKVCGAACSSK,4.5
21,PPESETKECPFRVNKVCGAACSSK,4.52
22,EPESETKECPFRVNKVCGAACSSK,5.05
23,SPESETKECPFRVNKVCGAACSSK,5.08
24,HPESETKECPFRVNKVCGAACSSK,4.54

row,Variant,protein stability index
1,LPESETKECPFRVNKVCGAACSSK,4.93
2,FPESETKECPDRVNKVCGAACSSK,5.06
3,FPESETKECPTRVNKVCGAACSSK,4.45
4,FPESETKECPPRVNKVCGAACSSK,4.96
5,FPESETKECPNRVNKVCGAACSSK,5.12
6,FPESETKECPWRVNKVCGAACSSK,2.16
7,FPESETKECPMRVNKVCGAACSSK,4.48
8,FPESETKECPCRVNKVCGAACSSK,3.71
9,FPESETKECPYRVNKVCGAACSSK,2.99
10,FPESETKECPKRVNKVCGAACSSK,5.11
11,FPESETKECPIRVNKVCGAACSSK,4.74
12,FPESETKECPSRVNKVCGAACSSK,5.28
13,FPESETKECPLRVNKVCGAACSSK,4.31
14,FPESETKEGPFRVNKVCGAACSSK,2.82
15,FPESETKETPFRVNKVCGAACSSK,2.64
16,FPESETKEDPFRVNKVCGAACSSK,3.87
17,FPESETKENPFRVNKVCGAACSSK,3
18,FPESETKEMPFRVNKVCGAACSSK,3.81
19,FPESETKEHPFRVNKVCGAACSSK,1.83
20,FPESETKELPFRVNKVCGAACSSK,3.6
21,FPEKETKECPFRVNKVCGAACSSK,3.78
22,FPEQETKECPFRVNKVCGAACSSK,3.83
23,FPELETKECPFRVNKVCGAACSSK,2.35
24,FPEAETKECPFRVNKVCGAACSSK,2.46

row,Variant,protein stability index
1,FPETETKECPFRVNKVCGAACSSK,3.34
2,FPESETKECPFRVNKVCGAACSPK,2.39
3,FPESETKECPFRVNKVCGAACSHK,3.33
4,FPESETKECPFRVNKVCGAACSFK,2.23
5,FPESETKECPFRVNKVCGAACSRK,2.02
6,FPESETKECPFRVNKVCGAACSCK,2.66
7,FPESETKECPFRVNKVCGAACSIK,2.26
8,FPESETKECPFRVNKVCGAACSWK,1.93
9,FPESETKECPFRVNKVCGAACSTK,2.19
10,FPESETKECPFRVNKNCGAACSSK,2.82
11,FPESETKECPFRVNKGCGAACSSK,2.9
12,FPESETKECPFRVNKDCGAACSSK,2.89
13,FPESETKECPFRVNKFCGAACSSK,2.57
14,FPESETKECPFRVNKMCGAACSSK,2.18
15,FPESETKECPFRVNKPCGAACSSK,2.11
16,FPESETKECPFRVNKACGAACSSK,3.03
17,FPESETKECPFRVNKYCGAACSSK,2.14
18,FPESETKECPFRVNKCCGAACSSK,2.24
19,FPESETKECPFRVNKQCGAACSSK,2.67
20,FPESKTKECPFRVNKVCGAACSSK,1.67
21,FPESLTKECPFRVNKVCGAACSSK,1.78
22,FPESNTKECPFRVNKVCGAACSSK,1.89
23,FPESDTKECPFRVNKVCGAACSSK,1.92
24,FPESHTKECPFRVNKVCGAACSSK,1.4

row,Variant,protein stability index
1,FPESITKECPFRVNKVCGAACSSK,1.8
2,FPESCTKECPFRVNKVCGAACSSK,1.72
3,FPESYTKECPFRVNKVCGAACSSK,1.87
4,FPESETKECPFRVNKVHGAACSSK,2.45
5,FPESETKECPFRVNKVNGAACSSK,2.99
6,FPESETKECPFRVNKVTGAACSSK,2.68
7,FPESETKECPFRVNKVQGAACSSK,2.4
8,FPESETKECPFRVNKVAGAACSSK,3.29
9,FPESETKECPFRVNKVFGAACSSK,2.79
10,FPESETKECPFRVNKVYGAACSSK,2.51
11,FPESETKECPFRVNKVIGAACSSK,3.16
12,FPESETKECPFRVNKVSGAACSSK,3.13
13,FPESETKECPFRVNKVPGAACSSK,2.29
14,FYESETKECPFRVNKVCGAACSSK,3.67
15,FSESETKECPFRVNKVCGAACSSK,3.66
16,FRESETKECPFRVNKVCGAACSSK,4.19
17,FAESETKECPFRVNKVCGAACSSK,2.02
18,FKESETKECPFRVNKVCGAACSSK,4.63
19,FCESETKECPFRVNKVCGAACSSK,2.31
20,FLESETKECPFRVNKVCGAACSSK,3.57
21,FIESETKECPFRVNKVCGAACSSK,2.07
22,FMESETKECPFRVNKVCGAACSSK,3.77
23,FPCSETKECPFRVNKVCGAACSSK,2.4
24,FPHSETKECPFRVNKVCGAACSSK,1.55

row,Variant,protein stability index
1,FPRSETKECPFRVNKVCGAACSSK,1.71
2,FPFSETKECPFRVNKVCGAACSSK,1.75
3,FPDSETKECPFRVNKVCGAACSSK,2.42
4,FPWSETKECPFRVNKVCGAACSSK,2.29
5,FPYSETKECPFRVNKVCGAACSSK,1.53
6,FPESETKECKFRVNKVCGAACSSK,3.75
7,FPESETKECIFRVNKVCGAACSSK,2.53
8,FPESETKECAFRVNKVCGAACSSK,2.95
9,FPESETKECYFRVNKVCGAACSSK,2.3
10,FPESETKECSFRVNKVCGAACSSK,3.96
11,FPESETKECQFRVNKVCGAACSSK,3.58
12,FPESETKECGFRVNKVCGAACSSK,4.1
13,FPESETKECEFRVNKVCGAACSSK,4.31
14,FPESETKECTFRVNKVCGAACSSK,3.67
15,FPESETKECPFHVNKVCGAACSSK,3.83
16,FPESETKECPFNVNKVCGAACSSK,3.66
17,FPESETKECPFQVNKVCGAACSSK,3.36
18,FPESETKECPFGVNKVCGAACSSK,4.11
19,FPESETKECPFTVNKVCGAACSSK,3.84
20,FPESETKECPFCVNKVCGAACSSK,4.62
21,FPESETKECPFRVNKVCGAAPSSK,2.23
22,FPESETKECPFRVNKVCGAADSSK,2.81
23,FPESETKECPFRVNKVCGAAHSSK,2.44
24,FPESETKECPFRVNKVCGAAVSSK,2.56

row,Variant,protein stability index
1,FPESETKECPFRVNKVCGAASSSK,2.9
2,FPESETKECPFRVNKVCGAAASSK,2.76
3,FPESETKECPFRVNKVCGAAMSSK,2.35
4,FPESETKECPFRVNKVCGAAYSSK,2.51
5,FPESETKECPFRVNKVCGAAWSSK,1.38
6,FPESETKECPFRVNKVCGAAISSK,2.04
7,FPESETKECPFRVNKVCGMACSSK,2.36
8,FPESETKECPFRVNKVCGKACSSK,2.51
9,FPESETKECPFRVNKVCGVACSSK,2.41
10,FPESETKECPFRVNKVCGFACSSK,2.02
11,FPESETKECPFRVNKVCGYACSSK,2.29
12,FPESETKECPFRVNKVCGGACSSK,2.81
13,FPESETKECPFRVNKVCGHACSSK,2.51
14,FPESETKYCPFRVNKVCGAACSSK,1.93
15,FPESETKICPFRVNKVCGAACSSK,2.13
16,FPESETKSCPFRVNKVCGAACSSK,2.14
17,FPESETKLCPFRVNKVCGAACSSK,2.33
18,FPESETKECPFRVNKVCPAACSSK,2.42
19,FPESETKECPFRVNKVCYAACSSK,2.09
20,FPESETKECPFRVNKVCIAACSSK,2.1
21,FPESETKECPFRVNKVCVAACSSK,1.75
22,FPESETKECPFRVNKVCTAACSSK,2.35
23,FPESETKECPFRVEKVCGAACSSK,3.29
24,FPESETKECPFRVCKVCGAACSSK,2.69

row,Variant,protein stability index
1,FPESETKECPFRVFKVCGAACSSK,2.15
2,FPESETKECPFRVLKVCGAACSSK,2.35
3,FPESETKECPFRVKKVCGAACSSK,2.07
4,FPESETKECPFRVPKVCGAACSSK,2.47
5,FPESETKECPFRVVKVCGAACSSK,2.08
6,FPESETKECPFRVAKVCGAACSSK,2.2
7,FPESETKECPFRVWKVCGAACSSK,2.4
8,FPESETKECPFRVNKVCGAACSSN,1.89
9,FPESETKECPFRVNKVCGAACSSY,2.25
10,FPESETKECPFRVNKVCGAACSSL,2.13
11,FPESETKECPFRVNKVCGAACSSP,2.21
12,FPESETKECPFRVNKVCGAACSSD,2.94
13,FPESETKECPFRVNKVCGAACSSW,1.46
14,FPESETKECPFRVNKVCGAACSSV,2.17
15,FPESETKECPFRVNKVCGAACSSF,2.02
16,FPESETKECPFRVNKVCGAACSSE,2.96
17,FPESETKECPFRVNKVCGAACSST,2.48
18,FPESETKECPFRVNKVCGAACSSR,2.05
19,FPESETKECPFRVNKVCGAACSSI,1.88
20,FPESETKECPFRINKVCGAACSSK,2.6
21,FPESETKECPFRDNKVCGAACSSK,4.31
22,FPESETKECPFRENKVCGAACSSK,4.17
23,FPESETKECPFRTNKVCGAACSSK,3.54
24,FPESETKECPFRANKVCGAACSSK,3.14

row,Variant,protein stability index
1,FPESETKECPFRWNKVCGAACSSK,2.19
2,FPESETKECPFRVNKVCGAACLSK,1.93
3,FPESETKECPFRVNKVCGAACQSK,2.66
4,FPESETKECPFRVNKVCGAACNSK,2.62
5,FPESETKECPFRVNKVCGAACESK,2.57
6,FPESETKECPFRVNKVCGAACASK,3.52
7,FPESETKECPFRVNKVCGATCSSK,3.22
8,FPESETKECPFRVNKVCGACCSSK,2.17
9,FPESETKECPFRVNKVCGAPCSSK,2.49
10,FPESETKECPFRVNKVCGAQCSSK,2.09
11,FPESETKECPFRVNKVCGAKCSSK,2.26
12,FPESETKECPFRVNKVCGARCSSK,2.53
13,FPESETKECPFRVNKVCGALCSSK,2.79
14,FPESETKECPFRVNKVCGAMCSSK,2.01
15,FPESETKECPFRVNKVCGAECSSK,2.84
16,FPESETKECPFRVNKVCGAYCSSK,2.27
17,FPESETKECPFRVNKVCGADCSSK,2.69
18,FPESEPKECPFRVNKVCGAACSSK,2.91
19,FPESEQKECPFRVNKVCGAACSSK,2.95
20,FPESESKECPFRVNKVCGAACSSK,2.36
